Columns and labels:
[1] = target: T1, miR2-FL-WT-T7 (mouse, UniProt Q80WQ6 1-827); test: FACS, MEF-DKO cells, 3 µg/ml
T1 construct: on MEF-DKO cells
T1 sequence: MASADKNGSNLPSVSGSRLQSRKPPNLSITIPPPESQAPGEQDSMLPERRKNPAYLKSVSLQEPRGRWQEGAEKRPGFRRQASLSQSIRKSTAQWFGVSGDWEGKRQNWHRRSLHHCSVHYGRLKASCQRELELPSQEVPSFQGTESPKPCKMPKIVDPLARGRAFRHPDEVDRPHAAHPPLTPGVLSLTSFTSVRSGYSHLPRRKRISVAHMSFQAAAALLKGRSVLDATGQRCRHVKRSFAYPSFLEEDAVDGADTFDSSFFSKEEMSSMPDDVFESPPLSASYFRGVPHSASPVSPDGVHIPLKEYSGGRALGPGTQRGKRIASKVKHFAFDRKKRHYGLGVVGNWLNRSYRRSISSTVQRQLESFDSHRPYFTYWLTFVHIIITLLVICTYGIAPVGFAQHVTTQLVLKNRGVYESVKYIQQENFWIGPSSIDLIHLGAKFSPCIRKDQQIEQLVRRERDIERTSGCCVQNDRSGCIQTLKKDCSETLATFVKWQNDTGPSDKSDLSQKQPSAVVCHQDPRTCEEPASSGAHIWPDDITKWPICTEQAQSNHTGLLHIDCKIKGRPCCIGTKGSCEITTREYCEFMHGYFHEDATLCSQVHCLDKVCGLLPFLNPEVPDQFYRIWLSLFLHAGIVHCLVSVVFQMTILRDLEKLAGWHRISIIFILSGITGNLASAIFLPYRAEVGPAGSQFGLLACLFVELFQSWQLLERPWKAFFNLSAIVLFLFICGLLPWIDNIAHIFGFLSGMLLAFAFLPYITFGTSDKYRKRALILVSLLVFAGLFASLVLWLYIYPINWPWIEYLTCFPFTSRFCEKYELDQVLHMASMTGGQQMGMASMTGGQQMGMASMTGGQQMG
Text: (§1) In brief, immortalized MEF-DKO-hiR2-FL-WT-T7 cells, MEF-DKO-miR2-FL-WT-T7 cells and MEF-DKO-hiR2-FL-R441K-T7, MEF-DKO-hiR2-FL-K443R-T7, MEF-DKO-hiR2-FL-V459I-T7, MEF-DKO-hiR2-FL-G481Q-T7, MEF-DKO-hiR2-FL-L488R-T7, MEF-DKO-hiR2-FL-L493I-T7, MEF-DKO-hiR2-FL-D496T-T7, MEF-DKO-hiR2-FL-H505R-T7, MEF-DKO-hiR2-FL-Q512L-T7, MEF-DKO-hiR2-FL- R513K-T7, MEF-DKO-hiR2-FL-D528N-T7, MEF-DKO-hiR2-FL-P533-T7, MEF-DKO-hiR2-FL-M534S-T7, MEF-DKO-hiR2-FL-G540S-T7, MEF-DKO-hiR2-FL-R543Q-T7, MEF-DKO-hiR2-FL-T544P-T7, MEF-DKO-hiR2-FL-G546A-T7, MEF-DKO-hiR2-FL-A547V-T7, MEF-DKO-hiR2-FL-R582Q-T7, MEF-DKO-hiR2-FL-F588L-T7, MEF-DKO-hiR2-FL-M591I-T7, MEF-DKO-hiR2-FL-E594K-T7, MEF-DKO-hiR2-FL-E626D-T7, MEF-DKO-hiR2-FL-L657I-T7, and MEF-DKO-hiR2-FL-H835Y-T7 cells were harvested with 10 mM EDTA in PBS, washed and resuspended in FACS buffer (PBS, 3% FBS, 0.05% sodium azide), and seeded in Nunc U-bottom 96-well plates (Thermo Fisher Scientific, USA) at approximately 3×10⁵ cells per well.
(§2) To pellet cells and remove supernatants, the plates were centrifuged at 1,500 rpm and 4° C. for 3 minutes. For primary staining, cells were resuspended in 100 μl per well of either FACS buffer alone (controls) or the purified antibodies 3, 5, 16, 22, 34, 42, 43, 44, 48, and 50 of the invention at 3 μg/ml FACS buffer and incubated on ice for 1 hour. Afterwards, plates were centrifuged at 1,500 rpm and 4° C. for 3 minutes and washed twice with 200 μl per well of FACS buffer. For secondary staining, cells were spun down and resuspended in 100 μl per well of PE-conjugated goat anti-mouse IgG F(ab′)2 detection fragment (Dianova, Germany) diluted 1:100 in FACS buffer. Protected from light, the cell suspensions were incubated on ice for 1 hour. Plates were then centrifuged at 1,500 rpm and 4° C. for 3 minutes and washed three times with 200 μl per well of FACS buffer. Finally, cells were resuspended in 150 μl per well of FACS buffer and analyzed using a BD Accuri™ C6 Plus flow cytometer (Becton Dickinson, Germany).

[2] = target: T2, hiR2-FL-G546A-T7 (human, UniProt Q6PJF5 1-856); test: FACS, MEF-DKO cells, 3 µg/ml
T2 sequence: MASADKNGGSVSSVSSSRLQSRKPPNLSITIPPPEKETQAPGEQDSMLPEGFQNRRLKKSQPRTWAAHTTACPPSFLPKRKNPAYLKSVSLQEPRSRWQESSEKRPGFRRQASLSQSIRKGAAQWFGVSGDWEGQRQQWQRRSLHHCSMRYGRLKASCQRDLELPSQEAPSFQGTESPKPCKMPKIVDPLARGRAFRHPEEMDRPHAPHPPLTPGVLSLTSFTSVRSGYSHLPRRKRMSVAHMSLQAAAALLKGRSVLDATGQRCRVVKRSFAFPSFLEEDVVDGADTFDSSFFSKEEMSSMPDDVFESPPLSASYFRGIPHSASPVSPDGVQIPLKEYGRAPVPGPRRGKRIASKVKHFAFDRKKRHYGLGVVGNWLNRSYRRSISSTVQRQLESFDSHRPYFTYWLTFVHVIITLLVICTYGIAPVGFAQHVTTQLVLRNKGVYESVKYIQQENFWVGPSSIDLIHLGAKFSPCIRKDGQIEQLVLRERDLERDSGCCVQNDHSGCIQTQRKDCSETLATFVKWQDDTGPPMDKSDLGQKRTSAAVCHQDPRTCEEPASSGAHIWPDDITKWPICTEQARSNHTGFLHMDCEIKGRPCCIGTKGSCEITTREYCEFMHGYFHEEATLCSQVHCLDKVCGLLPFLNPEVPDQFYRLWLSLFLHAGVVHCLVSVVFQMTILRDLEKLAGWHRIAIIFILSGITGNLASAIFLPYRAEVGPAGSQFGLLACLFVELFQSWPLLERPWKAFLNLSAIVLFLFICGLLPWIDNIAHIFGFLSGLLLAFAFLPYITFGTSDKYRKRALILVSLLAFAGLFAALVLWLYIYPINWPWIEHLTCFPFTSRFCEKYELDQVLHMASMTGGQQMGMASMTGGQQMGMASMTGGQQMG
Text: as §1, §2

Binder | loss of binding vs wild type [1] [%] | loss of binding vs wild type [2] [%]
antibody 16 (antibody, V domains shown, mouse IgG, kappa light chain; also called clone #16; purified antibody 16) VH: QVTLKESGPGILQPSQTLSLTCSFSGFSLSTFALGVGWIRQPSGRGLEWLAHIWWDDDKYYNPALKSRLTISKDTSKNHVFLKIANVDTADTATYYCARITTYYYGMDYWGQGTSVTVSS VL: DIVLSQSPATLSVTPGDSVSLFCRASQSIGNHLHWYQQESHASPRLLIKYASQSISGIPSRFSGSGSGTDFTLSINSVETEDFGMYFCQQSYNWPLTFGAGTKLELK | ≥ 95 | 
antibody 5 (antibody, V domains shown, mouse IgG, kappa light chain; also called clone #5; purified antibody 5) VH: QVTLKESGPGILQPSQTLSLTCSFSGFSLSTFGMGVGWIRQPSGKGLEWLAHIWWDDEKYYNSALKSRLTISKATSKNQAFLKIANVDTADTATYYCARISNYGSNYWYFNVWGTGTTVTVSS VL: QVVLTQSPALMSASPGEKVTMTCSAGSSVSCMYWYQQKPGSSPRVLIYDTSNLASGVPARFTGSGSGTSYSLTISRMEAEDAASYYCQQWNSYPLTFGAGTKLELK | ≥ 95 | ≥ 95
antibody 22 (antibody, V domains shown, mouse IgG, kappa light chain; also called clone #22; purified antibody 22) VH: QVTLKESGPGILQPSQTLSLTCSFSGFSLSTFGMGVGWIRQPSGKGLEWLAHIWWDDEKYYNSALKSRLTISKATSKNQVFLKIANVDTADTATYYCARISNYGSNYWYFNVWGTGTTVTVSS VL: QVVLTQSPALMSASPGEKVTMTCSAGSSVSYMYWYQQKPGSSPRVLIYDTSNLASGVPARFTGSGSGTSYSLTISRMEAEDAATYYCQQWNSYPLTFGAGTKLELK | ≥ 95 | ≥ 30
antibody 42 (antibody, V domains shown, mouse IgG, kappa light chain; also called clone #42; purified antibody 42) VH: QVTLKESGPGILQPSQTLSLTCSLSGFSLSTFGRGVGWIRQPSGKGLEWLAHIWWDDEKYYNPALKSRLTISKDTSKNQVFLRIANVDTADTATYYCARIQNYGSNYWYFDVWGTGTTVTVSS VL: LIVLTQSPAIMSASPGEKVTMTCGATSRISYMFWYQQKPGSSPRVLIYDTSNLASGVPVRFSGSGSGTSYSLTISRVEAEDVATYYCQQWNSYPLTFGAGTKLELK | ≥ 95 | ≥ 60
antibody 3 (antibody, V domains shown, mouse IgG, kappa light chain; also called clone #3; purified antibody 3) VH: QVTLKESGPGILQPSQTLSLTCSFSGFSLTTFAMGIGWVRQPSGKGLEWLAHIWWDGEKYNNPVLKSRLTISKDTSKNQVFLRIANVDTPDTATYYCARISSIYYIIDNWGQGTSVTVSS VL: DIVLTQSPATLSVTPGHSVSLSCRASQSISNNLHWYQKKSHESPRLLIKYVSQSISGIPSRFSGSGSGTDFTLSINSVETEDFGMYFCQQSYNWPLTFGAGTKLELK | ≥ 95 | ≥ 30
antibody 34 (antibody, V domains shown, mouse IgG, kappa light chain; also called clone #34; purified antibody 34) VH: QVTLKESGPGILQPSQTLSLTCSFSGFSLSTFSLGVGWIRQSSGKGLEWLAHIWWDDEKYYNPALKSRLTISKDTSKNQVFLKIANVDAADTATYYCARAYYSKSYYALDYWGQGTSVTVSS VL: DIQMTQSPSSLSASLGERVSLTCRASQEISGYLSWLQQKPDGTIKRLIYAASTLDSGVPKRFSGSRSGSDYSLAISSLESEDFADYYCLQYANFPFTFGSGTKLEIK | ≥ 95 | ≥ 60
antibody 43 (antibody, V domains shown, mouse IgG, kappa light chain; also called clone #43; purified antibody 43) VH: QVALKESGPGILQPSQTLSLTCSFSGFSLSTFGMGVGWIRQSSGKGLEWLANIWWDDDKYYNPALKSRLTISKDASKNQAFLKIANVDTADTATYYCARIGNYGSNYWYFDVWGTGTTVTVSS VL: QIVLTQSPAIMSASPGERVTMTCSANSRISYMYWYQQKPGSSPRLLIYDTSNLASGVPVRFSGSGSGTSYSLTISRMEAEDAATYNCQQWSSYPLTFGAGTKLELK | ≥ 95 | ≥ 60
antibody 44 (antibody, V domains shown, mouse IgG, kappa light chain; also called clone #44; purified antibody 44) VH: QVTLKESGPGILQPSQTLSLTCSFSGFSLSTFGMGVGWIRQPSEKGLEWLAHIWWDDDKYYNPALKSRLTISKDTSKNQIFLKITNVDTAETATYYCSRIGNYGSNYWYFDVWGTGTTVTVSS VL: QIVLTQSPAVMSASPGEKVTMTCTASSSVYYMYWYQQTPGSSPRLLIYDTSNLASGVPVRFSGSGSGTSYSLTISRMEAEDAATYYCQQWNTYPLTFGAGTKLELK | ≥ 95 | ≥ 60
antibody 48 (antibody, V domains shown, mouse IgG, kappa light chain; also called clone #48; purified antibody 48) VH: QVQLQQSGTELVRPGTSVKVSCKASGYAFTNYLIEWVKQRPGQGLEWIGVINPGSGFTKYNEKFKGKATLTADKSSSTVYMHLSSLTSEDSAVYFCARGLYRAMDYWGQGTSVTVSS VL: DIQMTQSPASQSASLGESVTITCLASQTIATWLAWYQQKPGKSPQLLIYGATTLADGVPSRFSGGGSGTKFSFKISSLQAEDFVSYYCQQLYSTPYTFGGGTKLEIK | ≥ 60 | 
antibody 50 (antibody, V domains shown, mouse IgG, kappa light chain; also called clone #50; purified antibody 50) VH: QVQLQQSGAELVRPGASVKVSCKASGYAFSNYLIEWVKQRPGQGLEWIGVINPGSGFTKYNEKFKGKATLTADKSSSTAYMQLSSLTSEDSAVYFCARGLYRAMDYWGQGTSVTVSS VL: DIQMTQSPASQSASLGESVTITCLASQTIGTWLAWYQQKPGKSPQLLIYAAASLADGVPSRFSGGGSGTKFSFKISSLQAEDFVNYYCQQIYSTPYTFGGGTKLEIK | ≥ 95 | ≥ 30

Reference: patent publication US20240287172A1 (SCIRHOM, published 2024)
